Reference: PMC9499513 (Proceedings of the National Academy of Sciences of the …, 2022)

Target: histone H4 (X. laevis, UniProt P62799 1-103)
Test: cryo-EM structure

binding result: binds
B1: IMPORTIN-4 (natural protein)
chain: MESAGLEQLLRELLLPDTERIRRATEQLQIVLRAPAALPALCDLLASAADPQIRQFAAVLTRRRLNTRWRRLAAEQRESLKSLILTALQRETEHCVSLSLAQLSATIFRKEGLEAWPQLLQLLQHSTHSPHSPEREMGLLLLSVVVTSRPEAFQPHHRELLRLLNETLGEVGSPGLLFYSLRTLTTMAPYLSTEDVPLARMLVPKLIMAMQTLIPIDEAKACEALEALDELLESEVPVITPYLSEVLTFCLEVARNVALGNAIRIRILCCLTFLVKVKSKALLKNRLLPPLLHTLFPIVAAEPPPGQLDPEDQDSEEEELEIELMGETPKHFAVQVVDMLALHLPPEKLCPQLMPMLEEALRSESPYQRKAGLLVLAVLSDGAGDHIRQRLLPPLLQIVCKGLEDPSQVVRNAALFALGQFSENLQPHISSYSREVMPLLLAYLKSVPLGHTHHLAKACYALENFVENLGPKVQPYLPELMECMLQLLRNPSSPRAKELAVSALGAIATAAQASLLPYFPAIMEHLREFLLTGREDLQPVQIQSLETLGVLARAVGEPMRPLAEECCQLGLGLCDQVDDPDLRRCTYSLFAALSGLMGEGLAPHLEQITTLMLLSLRSTEGIVPQYDGSSSFLLFDDESDGEEEEELMDEDVEEEDDSEISGYSVENAFFDEKEDTCAAVGEISVNTSVAFLPYMESVFEEVFKLLECPHLNVRKAAHEALGQFCCALHKACQSCPSEPNTAALQAALARVVPSYMQAVNRERERQVVMAVLEALTGVLRSCGTLTLKPPGRLAELCGVLKAVLQRKTACQDTDEEEEEEDDDQAEYDAMLLEHAGEAIPALAAAAGGDSFAPFFAGFLPLLVCKTKQGCTVAEKSFAVGTLAETIQGLGAASAQFVSRLLPVLLSTAQEADPEVRSNAIFGMGVLAEHGGHPAQEHFPKLLGLLFPLLARERHDRVRDNICGALARLLMASPTRKPEPQVLAALLHALPLKEDLEEWVTIGRLFSFLYQSSPDQVIDVAPELLRICSLILADNKIPPDTKAALLLLLTFLAKQHTDSFQAALGSLPVDKAQELQAVLGLS
